System: NC(=O)C[C@H](N)C(=O)O
Assay: Nessler ammonia assay, OD436; Lineweaver-Burk
Assay type: biochemical, Mycobacterium gordonae
Settings: 50 mM PBS pH 8.0, 37 °C, 2 min, 1-20 mM substrate

## GmASNase (Mycobacterium gordonae L-asparaginase) (Mycobacterium gordonae)
  Km: 6.025 mM
  kcat: 11,864.71 min^-1

Reference: paper PMC8617759, “Characterization of a Novel L-Asparaginase from Mycobacterium gordonae with Acrylamide Mitigation Potential” (Foods, 2021)
